Paper doi:10.1101/2025.03.17.643777, “Closed State Structure of the Pore Revealed by Uncoupled Shaker K^+ Channel” (bioRxiv, 2025)

Target: the molecule itself
Assay: cryo-EM structure; single-particle cryo-EM of the purified channel in 0.02% GDN, 150 mM KCl, 50 mM TRIS pH 7.5; C4 symmetry imposed

B1: Shaker-IR-I384R (natural protein, UniProt P08510 1-655, looked up)
chain: MAAVALREQQLQRNSLDGYGSLPKLSSQDEEGGAGHGFGGGPQHFEPIPHDHDFCERVVINVSGLRFETQLRTLNQFPDTLLGDPARRLRYFDPLRNEYFFDRSRPSFDAILYYYQSGGRLRRPVNVPLDVFSEEIKFYELGDQAINKFREDEGFIKEEERPLPDNEKQRKVWLLFEYPESSQAARVVAIISVFVILLSIVIFCLETLPEFKHYKVFNTTTNGTKIEEDEVPDITDPFFLIETLCIIWFTFELTVRFLACPNKLNFCRDVMNVIDIIAIIPYFITLATVVAEEEDTLNLPKAPVSPQDKSSNQAMSLAILRVIRLVRVFRIFKLSRHSKGLQRLGRTLKASMRELGLLIFFLFIGVVLFSSAVYFAEAGSENSFFKSIPDAFWWAVVTMTTVGYGDMTPVGVWGKIVGSLCAIAGVLTIALPVPVIVSNFNYFYHRETDQEEMQSQNFNHVTSCPYLPGTLGQHMKKSSLSESSSDMMDLDDGVESTPGLTETHPGRSAVAPFLGAQQQQQQPVASSLSMSIDKQLQHPLQQLTQTQLYQQQQQQQQQQQNGFKQQQQQTQQQLQQQQSHTINASAAAATSGSGSSGLTMRHNNALAVSIETDV
notes: built on the Shaker-IR model PDB 7SIP; The C-terminal HRV 3C site was cut to release the channel from the beads, so residues of the site may remain; also called uncoupled channel; completely uncoupled I384R mutant; not shown: eGFP, C-terminal, cleaved; 8xHis, C-terminal, cleaved
stoichiometry N: 4
